Experimental data: the domain aggregation screens of Martell et al. (2025)

Assay: soluble fraction after stress (log2 fold change); higher = more stays soluble; pooled small domains, quantitative proteomics
Settings: stress: pH 4
In short: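 High-throughput quantitative proteomics was run on pooled custom libraries of small protein domains following pH 4 stress. Fold changes are on a log2 scale; higher values mean more of a domain remained soluble. The fold change in soluble amount is taken as a measure of aggregation propensity.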

Row | Sequence | soluble fraction (log2)
1 | HMTVVLPGESLTVNIIQEGKELGQGVGYLDDGTMVVIEDGRRYIDQTIEVTVTRVLQTVAGRMIFAQLT | -0.886
2 | HMTWDSFIGYTVTDVQKGYLGEITDVDETTINVLLRVDHKGEELLIPAVEELITEADHEARSLTVSLPEGL | -2.11
3 | HMTYFIADLIGLQVYTDSGELLGKVDDIYNSGSADIYVVKDELGKQILLPGIKDVIKQIDVDNEKIIVHLI | -1.62
4 | HMTYIQSNLKFLRNKMNISQEELAKRLFVTHQTVSNHENGKSQPNFEMIEKYASFFNVPFEDLIHKDLSL | -0.309
5 | HMTYNIPEHYQTIDVKEYVRKLVSDGDSDQIGRVEMELTEFETRNLFPVLKVLIYIIDTMRK | -1.73
6 | HMTYQTVRYGSTGSAVRQLQSALNQKGYQLSEDGIFGAKTRAAVRDYQKKNGLLLDGIAGSQTWNHLMS | ≥ 0.43
7 | HMTYSSESVRYRIKSLIDNETIDEILSDDKIVNILKSQGIDVARRTVAKYREAMGLASSIQRRREKKSA | -0.0241
8 | HMVAGGTVSRKLSIETGLPKRKSLIGSWLDQNSVWHNIISVRHRNGYGDGVNYGFYLRSLLTSEGNLAW | 0.0466
9 | HMVAGHLQTKKGYYYIVLNMRTDTGARKTKWIATGIPEGGKKNLKQAEELLAKTRYTYEDMVI | 0.0939
10 | HMVAPKTEEQQKMFLESIVTKRQAETLIEKYPNIVQDIIDGTDNVDLANLKGIGEHTYNLIKEKVLSNY | -0.159
11 | HMVAPPILNITTHIFAEEADLRMVMINGVTRREGDSLGENHRLLEITERGLILIFHNKQYTLDV | -2.1
12 | HMVAQEVPYSTFVMRLDRNEVDAVKIIDGNEIEGTFKSPNGDLVQFKTLIPYQDTELMPLLKQKGVRISGS | ≥ 0.43
13 | HMVARPVLQIGSTGADVTAIQARLGVSQTGYFGVLTAAAVTNFQRSNGIAASGKVGATTWAKLMQSA | 0.316
14 | HMVAVSQEEATKMALERVSGASAQDIRIQLEFDDGIQKYEGDIIYNGREYEFEIDANTGTFLEWSEERA | ≥ 0.43
15 | HMVDETDVPTFTDMTLEEAQNEAKQRNLKLEITESPSDKEKDTILEQDPEPGKTVASGSTVKLTVSNGEE | 0.138
16 | HMVDFHAAYSILRIAPGASWQEIQAAYEKLNDAWREDRYPQVPFWNEKAAFKRREVEQAYEKLRKFHALRH | 0.0778
17 | HMVDFVNVVVPVKANYGGEAVVEFLDERLSEFGTEGIYRIELQGETMENPSPDYSQLKAKYHISEIVDRT | -0.375
18 | HMVDKDFKPLYASLERLDSTSIIEILDSNRIDYRIDQRSGALLVDADQIHQARLSLASAGMPA | -0.844
19 | HMVDLANIDPIASSIKLNGAEADASFNTLEDRRVSVSGSFEENKNYTMEYTFKDYAGGSVTGTLDFKTLA | 0.129
20 | HMVDLAPTEEIIKNLPNNSRSLLIPTLQKIQNAYRYLPSPAMELLSEFLNVTRAEIYGVISFYPSLL | 0.129
21 | HMVDLLDETLIEFYAFANNLIKDLETNSEKYGGMSQFEKELIFNEQITQYQRKLKIDLQDEVG | -1.39
22 | HMVDPRLRSLTPQERRILEHIAEGLTNRQIAEDMFLAEKTVKNYVTSILDKLGMDSRTQAAVYAATHPT | -0.438
23 | HMVDSTDLIPLLIKVSREKQGNKKLNWGEWLKIPENIYLKQINENIARKVFEDTNDLIDEAVNYINRKRRN | -0.558

Row | Sequence | soluble fraction (log2)
24 | HMVDTEVFSRLLRKVLAGDVTSAIRILEELIVGGRELSQFVGDFTWYMRNLLLVKTSDNPEEA | -0.116
25 | HMVDYYEILGVSPDASRKDIENAWRKKMREAHPDMGGSEDKAQLLNEAHKVLSDESARAEYDASR | -0.0915
26 | HMVELPDLIGKSKRLAFTQLEISGLKIGKIIYEPDLAKDAVLKILYNGKIVKAGEQLPRFATVDLVLG | -0.0904
27 | HMVEMIGLQMVGKSGIASTVLRPSGKVRIDGVVYDAVSEDGFIEKGQAVKVLRYETGQVYVEKL | 0.0132
28 | HMVEPIEESISQLSLLLQSLYEDGKSEVSFEELIRSDRSRVSLFLALLFMAQRGNVYLEQEELFGDLRVKN | -0.4
29 | HMVEREYRLEVPPEAEGKRLDQFLVNQPVQLSRSQVQHLIQNGLVLVNAKTRRSSYRVHTGDIIEMQVPA | -0.088
30 | HMVERQVTVPNLTGLGVADAQRLAQSMELDIEVLGEQESTDARPGAVLQQTPGAGTRAAAGSVVSVLV | -0.179
31 | HMVEVPEQLRDLLERSIEDLAELSVRSRNSLQKENIQTLGDLVQRTEEEMLGIENFGKKSLTEIAAFL | -0.92
32 | HMVEYFDDENLDAFIGRESDSYTEKEIEQFREILYTMNQKEVADWNRSLTIRGINIPNDLKDEMIMMI | -2.71
33 | HMVEYIENINLSEKQKFIAHEILKEIRGRAIFLRDVGLDYLNLSRKAGTLSGGEAQRIRLATQIGSA | -0.347
34 | HMVFKSAQEGLDFYSKQLNDVDATLGRIRRGEESGNGLYGSNRVKNLEEQRKKLDSFVTAYRNAVNAT | 0.177
35 | HMVFTEEEMLEKIKEYLSTNSYINRRAMETLFNLRQSTALKWLGHFTEIGVLRKEGERNYPVYFLNN | -0.159
36 | HMVGADTISDLISQRGRMIGDKPITNAVIKSGSEFSTINALSKAIASGDARTNDVEGMKPVFR | -0.0241
37 | HMVGKGASIILDRVNLPQYLEKFNEDGFDTIESLKNLNEIDLKEMGVKKGHIRVILNYLHEEY | -0.48
38 | HMVGLKWYDTGNKKPPIGTEYKNTELSEALKGHDRKEFTWKELDVLGVNITDKEQYIVVGENYYTQV | 0.22
39 | HMVGPAHIGLAVAKDQLPHWERHLTANGVEIEGRMRWDHGGESIYFRDPDAHLLELVTPGIWAN | -0.1
40 | HMVGVDMTVKEEVGKEGVTFTDLRPAGKVEIGNDIYDAVSNTGAFIQKGEKVKIIKYQAGQVYVEKLV | 0.187
41 | HMVIANADVRAKFSKGKDSFVKYYFKEKVLKDGFTEEVKNNIVQALFYLQIVTRIDGESGVLIIDY | 0.187
42 | HMVIDETVLIDLFERLAEDDRPQRVAFRYILALVLLRKRTLQLIGREDEDDGEIWLLRFKGTDGEPIRV | -2.56
43 | HMVIGKHSGSHTLVNDLAKRGITLDKEESATLLEMVRKAAVGLHRSISSDELYGLYKDMKSGQDPFEDS | 0.14
44 | HMVINVKEILERIKLVKGFHTQIEIARFLGVSKGTISNWLARNSVDFPLVISKLDGVDLNWLFTGIGMPQ | -0.433
45 | HMVISNDEFEDYLNRATEQLVSELSSGKNPRDAVHDLALTFADQHNKSYDAYQRMADSLEARMHTL | -0.156
46 | HMVITEQTVTVKYLYEDDTEAAPEHSETHKTGETFEIESPKIDGFTPDYELITGTIANDDLVYIVRYKTTP | -0.526

Row | Sequence | soluble fraction (log2)
47 | HMVITQVSTTQTDTTFQYHKVKPKETLFSISRLYEVSIDEIKTINPALNSRELMAGELLKLPIK | -0.337
48 | HMVKGIVPNLIGKTQDEAKQMAEEYGFSIGTVSEKASDKPKGTVIEQSPKAGAKASGVTSINIVVSDGS | -0.247
49 | HMVKKYEKVKEYLLERILDGTYVPDLPIPPERELASLLDVNRMTVRRAVEELMYDGYLIRKKGSGTYLTR | -0.2
50 | HMVKLSVGDIVQFAGGPHYVSSSAAKPASSPTAGPAKVTMIYQGAKHPYHIVHTTSASTVWGWVDADKVVK | -0.208
51 | HMVKNLRKLREELGLTQQRLAELTGISKSRIYSYESLDREPDIAGLITLADFFSVSIDYLVGK | -1.01
52 | HMVKPKIILADIGMITETDVTLAKASQAVLIAFNVKPSKEAKKLAEDENIKISTYNIIYEVLDFVKKSMSG | 0.0492
53 | HMVLALRGIVQGGAEPLVILSDGRTSQSLAVGERFLAYEVVEIGRTGVRLRGPEGEIWLAMASF | -1.37
54 | HMVLANLQAAEQGDLGIKEGEKLTILQTRPDGWWTARNANGETGLVPK | 0.0851
55 | HMVLFDLSEREKEVLKLLADGNSYKMIASRLEITYFTVNAHLKKIYEKLQVHSASEAVSVALRNSL | -1.36
56 | HMVLIQNEDVKDISNYPLLSSVPVFDVFNNKMIIPTFNKDSFNPLIYNFNFNSKRRLIYRVDNTNYLIVIK | -0.241
57 | HMVLMPIDALRGSSSSSEMRIAAVKFSPSKGWYFSLQERSDEGSSYYEQKVASDGSVSERVKVR | -0.69
58 | HMVLNVMIEEEVHREIIAAISKLPKERRRVVELSMAGFSQEEIAEKMAISVNTVKTIKLRAYRVLRERLKG | -0.208
59 | HMVLPELRLQGLPTAVLRLINRATALADDYRRLMEIAEDGRIDEWEAPEFERISENIQRVIAAGFEVL | 0.1
60 | HMVLQHHTATKALSYHTSASASAAVKGSFARGDSVQVVQGGSQTADGAKWHKVKVGSSYYYAAAEHLTP | -0.616
61 | HMVLTYYSVLGVKTDATTEEIKSTYKQLAIRNHPDRGGSEEVMKMINLAAEILSDPKSRKEYDLSLDA | -1.48
62 | HMVLVLPGEMIHVQVIDEGKEMGQGVGYLDDGTMVVVENGLRHIGRAIDVQVTKVLQTNAGRMIFGQPIL | -0.952
63 | HMVMAELRISVDRLQIGNYIKLPLSWRDHPFLLSSFMIKKEEQIQLIRQLRLKHVFIIPEKSDAPPKPA | -1.81
64 | HMVMNYKKIGKKIADRRILLGITQEELAEKVDSSANYISNIETGIKSGSLIFYIKVANELKLSLDFLFSDE | -0.363
65 | HMVMPTGRVRYYDAEKGFGFLSKDSGGDDVYVRSSALPAGVTSLKRGQKVEFGIIDGKRGEQALSVHLL | 0.0712
66 | HMVMTTVPEVLGMDIRTAASMLTGKNLKYDYDLVESDKPKDEVIEQDQAKGTEVPEGTVVKLKVSKGPA | 0.247
67 | HMVMTTVPEVLGMDISKAASLLTGKNLDYDYDLVESDKPKDQVIEQDVVKGTEVPEGTVIHLKVSKGPA | -0.0925
68 | HMVMVVDVLKALSNNSSDKFFNTSISNAIKAQEDSQEDFVTLFGIEYEKLSPNNGLAVIFTSQ | -0.816
69 | HMVNDDTIAATEAEILALLADKHRHHITELNSIRRPYEQIDAALSSLINEEKIFQEDGMLFV | -0.908
